# Laboratory results published in the Human Domainome abundance scans (Beltran et al. 2025).
# ± gives the uncertainty stated by the source.
# B1: SH3 and PX domain-containing protein 2B, residues 155 to 209; numbered along this chain, A1X283 (parent)
# chain: EQYVVVANYQKQESSEISLSVGQVVDIIEKNESGWWFVSTAEEQGWVPATCLEGQ
# Variants of: B1
# Experiment: abundance fitness (aPCA) (normalised: wild type 0, dead -1); higher = more abundant; growth selection in yeast, the domain comes from the species named
# Conditions: Homo sapiens
row,Variant,abundance fitness
1,EQYVVVANYQKQESSEISLSVGQVVDIIEFNESGWWFVSTAEEQGWVPATCLEGQ [K30F],-0.357 ± 0.11
2,EQYVVVANYQKQESSEISLSVGQVVNIIEKNESGWWFVSTAEEQGWVPATCLEGQ [D26N],0.146 ± 0.14
3,EQYVVVANYQKQESSEISLSVGQVVAIIEKNESGWWFVSTAEEQGWVPATCLEGQ [D26A],-0.054 ± 0.084
4,EQYVVVANYQKQESSEISLSVGQVVHIIEKNESGWWFVSTAEEQGWVPATCLEGQ [D26H],-0.214 ± 0.29
5,EQYVVVANYQKQESSEISLSVGQVVCIIEKNESGWWFVSTAEEQGWVPATCLEGQ [D26C],-0.269 ± 0.15
6,EQYVVVANYQKQESSEISLSVGQVVVIIEKNESGWWFVSTAEEQGWVPATCLEGQ [D26V],-0.179 ± 0.074
7,EQYVVVANYQKQESSEISLSVGQVVDIIEKNESGWWFVSTAEEQGWVPATCLEQQ [G54Q],0.121 ± 0.24
8,EQYVVVANYQKQESSEISLSVGQVVDIIEKNESGWWFVSTAEEQGWVPATCLEIQ [G54I],0.079 ± 0.089
9,EQYVVVANYQKQESSEISLSVGQVVDIIEKNESGWWFVSTAEEQGWVPGTCLEGQ [A49G],-0.016 ± 0.099
10,EQYVVVANYQKQESSEISLSAGQVVDIIEKNESGWWFVSTAEEQGWVPATCLEGQ [V21A],-0.043 ± 0.097
11,EQYVVVANYQKQESSEISLSMGQVVDIIEKNESGWWFVSTAEEQGWVPATCLEGQ [V21M],-0.066 ± 0.094
12,EQYVVVANYQKQESSEISLSSGQVVDIIEKNESGWWFVSTAEEQGWVPATCLEGQ [V21S],-0.238 ± 0.1
13,EQYVVVANYQKQESSEISLSVGQVVDWIEKNESGWWFVSTAEEQGWVPATCLEGQ [I27W],-0.477 ± 0.1
14,EQYVVVANYQKQESSEISLSVGQVVDGIEKNESGWWFVSTAEEQGWVPATCLEGQ [I27G],-0.351 ± 0.073
15,EQYVVVANYQKQESSEISLSVGQVVDIIHKNESGWWFVSTAEEQGWVPATCLEGQ [E29H],0.056 ± 0.28
16,EQYVVVANIQKQESSEISLSVGQVVDIIEKNESGWWFVSTAEEQGWVPATCLEGQ [Y9I],-0.809 ± 0.37
17,EQYVVVANWQKQESSEISLSVGQVVDIIEKNESGWWFVSTAEEQGWVPATCLEGQ [Y9W],0.094 ± 0.12
18,EQYVVVANEQKQESSEISLSVGQVVDIIEKNESGWWFVSTAEEQGWVPATCLEGQ [Y9E],-0.597 ± 0.11
19,EQYVVVANTQKQESSEISLSVGQVVDIIEKNESGWWFVSTAEEQGWVPATCLEGQ [Y9T],-0.312 ± 0.11
20,EQYVVVANYQKQESSEISLSVGQVVDIIEKNESGWWFVSTAEEQGWVWATCLEGQ [P48W],-0.835 ± 0.12
21,EQYVVVANYQKQESSEISLSVGQVVDIIEKNESGWWFVSTAEEQGWVGATCLEGQ [P48G],-1 ± 0.12
22,EQYVVVANYQKQESSEISLSVGQVVDIIEKNESGWWFVSTAEEQGWVMATCLEGQ [P48M],-0.76 ± 0.16
23,EQYVVVANYQKQESSEISLSVGQVVDIIEKNESGWWFVDTAEEQGWVPATCLEGQ [S39D],-0.113 ± 0.11
24,EQYVKVANYQKQESSEISLSVGQVVDIIEKNESGWWFVSTAEEQGWVPATCLEGQ [V5K],-0.552 ± 0.35

row,Variant,abundance fitness
1,EQYVVVAIYQKQESSEISLSVGQVVDIIEKNESGWWFVSTAEEQGWVPATCLEGQ [N8I],-0.501 ± 0.18
2,EQYVVVANYQKQESSEISLSVGQVVDIIEKNESGWWFVSTAEEQGWVPATCDEGQ [L52D],-0.942 ± 0.17
3,EQYVVVANYQKQEFSEISLSVGQVVDIIEKNESGWWFVSTAEEQGWVPATCLEGQ [S14F],-0.458 ± 0.15
4,EQYVVVANYQKQEVSEISLSVGQVVDIIEKNESGWWFVSTAEEQGWVPATCLEGQ [S14V],0.014 ± 0.086
5,EQYVVVANYQKQESSEISLSVGQVVDIIEKNESGWQFVSTAEEQGWVPATCLEGQ [W36Q],-0.71 ± 0.12
6,EQYVVVANYQKQESSEISLSVGQVVDIIEKNESGWDFVSTAEEQGWVPATCLEGQ [W36D],-0.403 ± 0.096
7,EQYVVVANYQKQESSEISLSVGQVVDIIEKNWSGWWFVSTAEEQGWVPATCLEGQ [E32W],-0.353 ± 0.1
8,EQYVVVANYQKQESSEISLSVGQVVDIIEKNTSGWWFVSTAEEQGWVPATCLEGQ [E32T],-0.122 ± 0.16
9,EQYVVVANYQKQESSEISLSVGQVVDIIEKNESGWWFVSTAEEQGWPPATCLEGQ [V47P],-0.922 ± 0.18
10,EQYVVVANYQKQESSEISLSVGQVVDIIEKNESGWWFVSTAEEQGWSPATCLEGQ [V47S],-0.567 ± 0.098
11,EQYNVVANYQKQESSEISLSVGQVVDIIEKNESGWWFVSTAEEQGWVPATCLEGQ [V4N],-0.139 ± 0.14
12,EQYHVVANYQKQESSEISLSVGQVVDIIEKNESGWWFVSTAEEQGWVPATCLEGQ [V4H],-0.308 ± 0.15
13,EQYVVVANYQTQESSEISLSVGQVVDIIEKNESGWWFVSTAEEQGWVPATCLEGQ [K11T],-0.357 ± 0.14
14,EQYVVVANYQLQESSEISLSVGQVVDIIEKNESGWWFVSTAEEQGWVPATCLEGQ [K11L],-0.433 ± 0.11
15,EQYVVVANYQWQESSEISLSVGQVVDIIEKNESGWWFVSTAEEQGWVPATCLEGQ [K11W],-0.496 ± 0.12
16,EQYVVVANYQKQESSEISLSVGQVVDIIEKNESGWWFVSTAEEQGWVPATDLEGQ [C51D],-0.737 ± 0.14
17,EQYVVVANYQKQESSEDSLSVGQVVDIIEKNESGWWFVSTAEEQGWVPATCLEGQ [I17D],-0.889 ± 0.37
18,EQYVVVANYQKQESSERSLSVGQVVDIIEKNESGWWFVSTAEEQGWVPATCLEGQ [I17R],-0.332 ± 0.061
19,EQYVVVANYQKQESSEVSLSVGQVVDIIEKNESGWWFVSTAEEQGWVPATCLEGQ [I17V],-0.048 ± 0.086
20,EQYVVVANYQKQESSEMSLSVGQVVDIIEKNESGWWFVSTAEEQGWVPATCLEGQ [I17M],-0.053 ± 0.12
21,EQYVVVANYQKQESSELSLSVGQVVDIIEKNESGWWFVSTAEEQGWVPATCLEGQ [I17L],-0.055 ± 0.084
22,EQYVVVANYQKQESSEISLSVGQVVDIIEKNECGWWFVSTAEEQGWVPATCLEGQ [S33C],-0.266 ± 0.14
23,EQYVVVANYQKQESSEISLSVGQVVDIIEKNEDGWWFVSTAEEQGWVPATCLEGQ [S33D],0.095 ± 0.1
24,EQYVVVANYQKQESSEISLSVGQVVDIIEKNEKGWWFVSTAEEQGWVPATCLEGQ [S33K],0.058 ± 0.11
